This note sets out measurements from patent US20240166748A1.

The term Kd denotes the concentration at which binding is half-saturated. Lower therefore signals a tighter complex. As usually defined, the koff is the first-order rate constant of dissociation. A higher koff goes with a short-lived complex. Broadly, the kon is the second-order rate constant of association.

Where “and” joins values, the source holds several entries; their conditions need not be identical. Equal entries are not always repeated.

To fix the notation:
B1: wild-type canine IgG.B Fc (SASA-tagged CH2-CH3) (Fc fusion, part only; not given: serum albumin single-domain tag, part only)
chain, part: APEMLGGPSVFIFPPKPKDTLLIARTPEVTCVVVDLDPEDPEVQISWFVDGKQMQTAKTQPREEQFNGTYRVVSVLPIGHQDWLKGKQFTCKVNNKALPSPIERTISKARGQAHQPSVYVLPPSREELSKNTVSLTCLIKDFFPPDIDVEWQSNGQQEPESKYRTTPPQLDEDGSYFLYSKLSVDKSRWQRGDTFICAVMHEALHNHYTQESLSHSPGK

One test concerns the target T1, canine FcRn (UniProtKB-E2R0L6 [FcRn] and UniProtKB-E2RN10 [canine beta-2-microglobulin]) (canine). As to the kind of experiment: SPR Biacore 8K, pH 5.5, Fc captured via SASA tag on BSA, canine FcRn 400 nM. Background: SPR reads the build-up and loss of mass on a sensor chip optically.
“canine IgG.B Fc variant G309A (SASA-tagged CH2-CH3) (Fc fusion)”: the Kd is 245 nM and 294 nM; the WT KD Avg/Variant KD is 2.31 and 1.92.

Regarding “canine IgG.B Fc variant Q311A (SASA-tagged CH2-CH3) (Fc fusion)”, the Kd is 368 nM and 370 nM; the WT KD Avg/Variant KD was 1.54 and 1.53; the koff is 0.894 s⁻¹ and 0.496 s⁻¹; the kon was 2.43e+06 M⁻¹ s⁻¹ and 1.34e+06 M⁻¹ s⁻¹.

On to “canine IgG.B Fc variant T286A (SASA-tagged CH2-CH3) (Fc fusion)”, for which the Kd is 464 nM and 569 nM; the WT KD Avg/Variant KD is 1.22 and 0.99; the koff was 0.196 s⁻¹ and 0.304 s⁻¹; the kon is 422000 M⁻¹ s⁻¹ and 533000 M⁻¹ s⁻¹.

Regarding “canine IgG.B Fc variant L252A (SASA-tagged CH2-CH3) (Fc fusion)”, the Kd is 292 nM and 240 nM; the WT KD Avg/Variant KD is 1.94 and 2.36.

On to “canine IgG.B Fc variant N434A (SASA-tagged CH2-CH3) (Fc fusion)”, for which the Kd was 457 nM and 494 nM; the WT KD Avg/Variant KD is 1.24 and 1.14; the koff was 0.237 s⁻¹ and 0.477 s⁻¹; the kon was 518000 M⁻¹ s⁻¹ and 966000 M⁻¹ s⁻¹.

For the molecule “canine IgG.B Fc variant K315A (SASA-tagged CH2-CH3) (Fc fusion)”, the Kd is 422 nM and 548 nM; the WT KD Avg/Variant KD was 1.34 and 1.03.

With “canine IgG.B Fc variant M428A (SASA-tagged CH2-CH3) (Fc fusion)”, the Kd is 723 nM and 1670 nM; the WT KD Avg/Variant KD was 0.78 and 0.34; the kon is 234000 M⁻¹ s⁻¹ and 318000 M⁻¹ s⁻¹.

With “canine IgG.B Fc variant E380A (SASA-tagged CH2-CH3) (Fc fusion)”, the Kd was 618 nM and 747 nM; the WT KD Avg/Variant KD is 0.76 and 0.92; the koff was 0.369 s⁻¹ and 0.18 s⁻¹; the kon is 598000 M⁻¹ s⁻¹ and 241000 M⁻¹ s⁻¹.

As to “canine IgG.B Fc variant T250A (SASA-tagged CH2-CH3) (Fc fusion)”, the Kd was 335 nM and 328 nM; the WT KD Avg/Variant KD was 1.69 and 1.72.

As for “canine IgG.B Fc variant A254S (SASA-tagged CH2-CH3) (Fc fusion)”, the Kd is 340 nM and 317 nM; the WT KD Avg/Variant KD was 1.66 and 1.78.

In the case of “canine IgG.B Fc variant P307A (SASA-tagged CH2-CH3) (Fc fusion)”, the Kd is 325 nM and 338 nM; the WT KD Avg/Variant KD is 1.74 and 1.67.

Regarding “canine IgG.B Fc variant I308A (SASA-tagged CH2-CH3) (Fc fusion)”, the Kd was 472 nM and 563 nM; the WT KD Avg/Variant KD is 1.2 and 1; the koff is 0.169 s⁻¹ and 0.194 s⁻¹; the kon is 357000 M⁻¹ s⁻¹ and 345000 M⁻¹ s⁻¹.

On to “canine IgG.B Fc variant Y436A (SASA-tagged CH2-CH3) (Fc fusion)”, for which the Kd was 393 nM and 876 nM; the WT KD Avg/Variant KD was 1.44 and 0.65; the koff is 0.407 s⁻¹ and 0.213 s⁻¹.

As to “canine IgG.B Fc variant D378A (SASA-tagged CH2-CH3) (Fc fusion)”, the dissociation constant Kd is 673 nM and 592 nM; the WT KD Avg/Variant KD was 0.84 and 0.96; the koff is 0.183 s⁻¹ and 0.181 s⁻¹; the on-rate (kon) is 272000 M⁻¹ s⁻¹ and 306000 M⁻¹ s⁻¹.

Take “canine IgG.B Fc variant H433A (SASA-tagged CH2-CH3) (Fc fusion)”: the Kd was 266 nM and 359 nM; the WT KD Avg/Variant KD was 2.13 and 1.58; the koff was 0.229 s⁻¹ and 0.0997 s⁻¹.

Turning to “canine IgG.B Fc variant Q285A (SASA-tagged CH2-CH3) (Fc fusion)”, the Kd is 341 nM and 257 nM; the WT KD Avg/Variant KD is 1.66 and 2.2.

For “canine IgG.B Fc variant T256A (SASA-tagged CH2-CH3) (Fc fusion)”, the Kd was 447 nM and 298 nM; the WT KD Avg/Variant KD was 1.27 and 1.9.

The target in another test is T1, canine FcRn. Description: SPR Biacore 8K, pH 5.5, Fc captured via SASA tag on BSA, canine FcRn 200 nM.
With “canine IgG.B Fc variant D378V (SASA-tagged CH2-CH3) (Fc fusion)”, the Kd was 693 nM and 873 nM; the koff is 0.159 s⁻¹ and 0.16 s⁻¹; the kon was 229000 M⁻¹ s⁻¹ and 184000 M⁻¹ s⁻¹.

In the case of “canine IgG.B Fc variant L252M (SASA-tagged CH2-CH3) (Fc fusion)”, the Kd is 869 nM and 774 nM; the koff is 0.168 s⁻¹ and 0.169 s⁻¹; the kon was 193000 M⁻¹ s⁻¹ and 218000 M⁻¹ s⁻¹.

Turning to “canine IgG.B Fc variant N434W (SASA-tagged CH2-CH3) (Fc fusion)”, the Kd is 40.4 nM and 75.7 nM.

As for “canine IgG.B Fc variant N434R (SASA-tagged CH2-CH3) (Fc fusion)”, the Kd is 107 nM and 159 nM; the koff is 0.0524 s⁻¹ and 0.0633 s⁻¹; the kon was 488000 M⁻¹ s⁻¹ and 399000 M⁻¹ s⁻¹.

As to “canine IgG.B Fc variant N434A (SASA-tagged CH2-CH3) (Fc fusion)”, the Kd was 573 nM and 629 nM; the koff was 0.156 s⁻¹ and 0.164 s⁻¹; the kon is 272000 M⁻¹ s⁻¹ and 261000 M⁻¹ s⁻¹.

Turning to “canine IgG.B Fc variant T250Q (SASA-tagged CH2-CH3) (Fc fusion)”, the Kd was 2590 nM and 2840 nM; the koff is 0.258 s⁻¹ and 0.268 s⁻¹; the kon was 99600 M⁻¹ s⁻¹ and 94300 M⁻¹ s⁻¹.

For the molecule “canine IgG.B Fc variant E380A (SASA-tagged CH2-CH3) (Fc fusion)”, the dissociation constant (Kd) is 1320 nM and 1570 nM; the koff was 0.223 s⁻¹ and 0.239 s⁻¹; the kon is 168000 M⁻¹ s⁻¹ and 152000 M⁻¹ s⁻¹.

As to “canine IgG.B Fc variant Q311V (SASA-tagged CH2-CH3) (Fc fusion)”, the Kd was 372 nM and 439 nM; the koff was 0.566 s⁻¹ and 0.696 s⁻¹; the kon was 1.52e+06 M⁻¹ s⁻¹ and 1.59e+06 M⁻¹ s⁻¹.

Molecule “canine IgG.B Fc variant N434Y (SASA-tagged CH2-CH3) (Fc fusion)” had a Kd of 15.9 nM, a koff of 0.00968 s⁻¹ and a kon of 607000 M⁻¹ s⁻¹.

For “canine IgG.B Fc variant L252Y (SASA-tagged CH2-CH3) (Fc fusion)”, the Kd is 98.7 nM and 114 nM; the koff was 0.0397 s⁻¹ and 0.041 s⁻¹; the kon was 402000 M⁻¹ s⁻¹ and 358000 M⁻¹ s⁻¹.

“canine IgG.B Fc variant T250E (SASA-tagged CH2-CH3) (Fc fusion)”: the Kd was 2480 nM and 1660 nM; the koff was 0.284 s⁻¹ and 0.287 s⁻¹; the kon is 114000 M⁻¹ s⁻¹ and 172000 M⁻¹ s⁻¹.

Turning to “canine IgG.B Fc variant N434S (SASA-tagged CH2-CH3) (Fc fusion)”, the Kd was 924 nM and 1050 nM; the koff was 0.207 s⁻¹ and 0.209 s⁻¹; the kon was 225000 M⁻¹ s⁻¹ and 199000 M⁻¹ s⁻¹.

For the molecule “canine IgG.B Fc variant A254T (SASA-tagged CH2-CH3) (Fc fusion)”, the Kd was 2290 nM and 1340 nM; the koff is 0.375 s⁻¹ and 0.433 s⁻¹; the kon was 163000 M⁻¹ s⁻¹ and 323000 M⁻¹ s⁻¹.

In the case of B1, the Kd was 8990 nM and 3110 nM; the koff was 0.347 s⁻¹ and 0.354 s⁻¹; the kon is 38700 M⁻¹ s⁻¹ and 114000 M⁻¹ s⁻¹.

The next test deals with T1, canine FcRn. The description is as above. This is another data set of the same source.
With B1, the Kd is 1710 nM and 2660 nM; the koff was 0.288 s⁻¹ and 0.326 s⁻¹; the kon was 168000 M⁻¹ s⁻¹ and 123000 M⁻¹ s⁻¹.

The target of another test is T1, canine FcRn. Described as above. The source holds these as a separate data set.
Regarding B1, the Kd is 2050 nM and 2990 nM; the koff is 0.31 s⁻¹ and 0.315 s⁻¹; the on-rate constant (kon) is 151000 M⁻¹ s⁻¹ and 105000 M⁻¹ s⁻¹.

The target of a further test is T1, canine FcRn. The test is described as above. This is another data set of the same source.
Take B1: the Kd is 884 nM and 862 nM; the off-rate constant (koff) is 0.21 s⁻¹ and 0.218 s⁻¹; the kon was 237000 M⁻¹ s⁻¹ and 253000 M⁻¹ s⁻¹.

For a further test, the target named is T1, canine FcRn. The description is as above. The source holds these as a separate data set.
As for B1, the Kd was 639 nM and 692 nM; the koff is 0.17 s⁻¹ and 0.171 s⁻¹; the kon is 267000 M⁻¹ s⁻¹ and 247000 M⁻¹ s⁻¹.

The next test has as its target T1, canine FcRn. Described as above. This is another data set of the same source.
For the molecule B1, the Kd is 502 nM and 784 nM; the koff was 0.169 s⁻¹ and 0.207 s⁻¹; the kon is 336000 M⁻¹ s⁻¹ and 264000 M⁻¹ s⁻¹.

In another test the target is T1, canine FcRn. The description is as above. This is another data set of the same source.
On to B1, for which the Kd is 1560 nM and 754 nM; the koff was 0.179 s⁻¹ and 0.182 s⁻¹; the kon was 115000 M⁻¹ s⁻¹ and 242000 M⁻¹ s⁻¹.

The target of a further test is T1, canine FcRn. Described as above. This is another data set of the same source.
As for B1, the equilibrium dissociation constant (Kd) was 955 nM and 1310 nM; the koff was 0.181 s⁻¹ and 0.209 s⁻¹; the kon is 190000 M⁻¹ s⁻¹ and 159000 M⁻¹ s⁻¹.

The target in the next test is T1, canine FcRn. As to the kind of experiment: SPR Biacore 8K, pH 5.5, canine FcRn 400 nM; average of the 12 wild-type runs.
In turn, B1 had a Kd of 566 nM.

The target of another test is T1, canine FcRn. As to the kind of experiment: SPR Biacore 8K, pH 5.5, Fc captured via SASA tag on BSA, canine FcRn 100-800 nM.
Molecule “canine IgG.B Fc variant N434W (SASA-tagged CH2-CH3) (Fc fusion)” registered an equilibrium dissociation constant (Kd) of 101 nM, a dissociation rate constant (koff) of 0.045 s⁻¹ and an association rate constant (kon) of 446000 M⁻¹ s⁻¹.

In the case of “canine IgG.B Fc variant N434R (SASA-tagged CH2-CH3) (Fc fusion)”, the Kd was 182 nM, the koff worked out at 0.0801 s⁻¹ and the kon is 440000 M⁻¹ s⁻¹.

Molecule “canine IgG.B Fc YTE variant (L252Y/A254T/T256E) (SASA-tagged CH2-CH3) (Fc fusion)” had a dissociation constant (Kd) of 184 nM, a dissociation rate constant (koff) of 0.046 s⁻¹ and a kon of 250000 M⁻¹ s⁻¹.

“canine IgG.B Fc variant N434Y (SASA-tagged CH2-CH3) (Fc fusion)” registered a Kd of 29.1 nM, a koff of 0.0151 s⁻¹ and a kon of 520000 M⁻¹ s⁻¹.

The molecule “canine IgG.B Fc variant L252Y (SASA-tagged CH2-CH3) (Fc fusion)” had a Kd of 173 nM, a koff of 0.0476 s⁻¹ and a kon of 275000 M⁻¹ s⁻¹.

The molecule “canine IgG.B Fc variant N434H (SASA-tagged CH2-CH3) (Fc fusion)” showed a Kd of 247 nM, an off-rate constant (koff) of 0.102 s⁻¹ and a kon of 411000 M⁻¹ s⁻¹.

For B1, the Kd was 3150 nM, the koff came out at 0.527 s⁻¹ and the kon came out at 168000 M⁻¹ s⁻¹.
